# Test results as given in US20210309735A1 (published 2021).
# Substitutions are numbered along the chain they refer to.
# T1: human IL-17A (human, UniProt Q16552 20-155, limits assumed)
# T1 construct: Bought from R&D Systems; also called IL-17 antigen (human IL17A)
# T1 sequence (looked up): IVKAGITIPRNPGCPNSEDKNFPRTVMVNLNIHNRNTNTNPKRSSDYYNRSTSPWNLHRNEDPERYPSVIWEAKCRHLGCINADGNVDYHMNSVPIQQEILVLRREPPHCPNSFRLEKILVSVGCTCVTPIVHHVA
# T2: mouse IL-17A (mouse, UniProt Q62386 26-158, limits assumed)
# T2 sequence (looked up): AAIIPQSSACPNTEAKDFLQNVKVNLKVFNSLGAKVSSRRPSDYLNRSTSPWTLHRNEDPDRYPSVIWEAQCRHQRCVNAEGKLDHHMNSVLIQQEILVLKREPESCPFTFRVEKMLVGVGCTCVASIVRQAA
# B1: PP10761 (antibody, human IgG4 S228P, kappa, V domains shown)
# VH: EVQLVESGGGLVQPGGSLRLSCAASGFTFSTYGMSWVRQAPGKGLELVSIINHNGGSTFYPDSVKGRFTISRDNSKNTLYLQMNSLRAEDTAVYYCARDPRHDGYFFDYWGQGTLVTVSS
# VL: DIQMTQSPSSLSASVGDRVTITCQASEDIYDRLAWYQQKPGKAPKLLISGATSLETGVPSRFSGSGSGKDYTFTISSLQPEDIATYYCQQYWSVPWTFGGGTKVEIKR
# notes: Humanized, human IgG4/kappa; also called VH6665/VL6666
# B2: PP10768 (antibody, human IgG4 S228P, kappa, V domains shown)
# VH: B1 VH with L11V, G16R, S49A
# VL: B1 VL with Q24R, K45N, I48V, T56S, F73L, I83F
# notes: Humanized, human IgG4/kappa; also called VH6667/VL6667
# B3: PP10763 (antibody, human IgG4 S228P, kappa, V domains shown)
# VH: B1 VH with S49A, I70V
# VL: B1 VL with K69T
# notes: Humanized, human IgG4/kappa; also called VH6666/VL6665
# B4: PP10767 (antibody, human IgG4 S228P, kappa, V domains shown)
# VH: B1 VH with L11V, G16R, S49A
# VL: B1 VL
# notes: Humanized, human IgG4/kappa; also called VH6667/VL6666
# B5: PP10764 (antibody, human IgG4 S228P, kappa, V domains shown)
# VH: B1 VH with S49A, I70V
# VL: B1 VL
# notes: Humanized, human IgG4/kappa; also called VH6666/VL6666
# B6: PP10765 (antibody, human IgG4 S228P, kappa, V domains shown)
# VH: B1 VH with S49A, I70V
# VL: B1 VL with Q24R, K45N, I48V, T56S, F73L, I83F
# notes: Humanized, human IgG4/kappa; also called VH6666/VL6667
# B7: PP10762 (antibody, human IgG4 S228P, kappa, V domains shown)
# VH: B1 VH
# VL: B1 VL with Q24R, K45N, I48V, T56S, F73L, I83F
# notes: Humanized, human IgG4/kappa; also called VH6665/VL6667
# B8: PP10766 (antibody, human IgG4 S228P, kappa, V domains shown)
# VH: B1 VH with L11V, G16R, S49A
# VL: B1 VL with K69T
# notes: Humanized, human IgG4/kappa; also called VH6667/VL6665
# B9: PP10760 (antibody, human IgG4 S228P, kappa, V domains shown)
# VH: B1 VH
# VL: B1 VL with K69T
# notes: Humanized, human IgG4/kappa; also called VH6665/VL6665
# B10: PP10759 (antibody, human IgG4 S228P, kappa, V domains shown)
# VH: EVQLVESGGGLVQPGGSLKLSCVASGFTFSTYGMSWVRQTPDKRLELVAIINHNGGSTFYPDSVKGRFTVSRDNAKNTLHLQMSSLKSEDTAMYYCARDPRHDGYFFDYWGQGTTLTVSS
# VL: DIQMTQSSPSFSVSLGDRVTITCKASEDIYDRLAWYQQKPGNAPRLLISGATSLETGIPSRFSGSRSGKDYTLDINSLQTEDAATYYCQQYWSVPWTFGGGTKLEIKR
# notes: expressed in HEK293; also called chimeric antibody PP10759; chimeric parental antibody
# Legend:
# human IL-17A [1] = biological target: T1, human IL-17A; test: blocking ELISA, IL-17RC coated; control IgG pre-mixed with human IL-17A 0.1 ug/ml; bound IL-17A detected
# human IL-17A [2] = biological target: T1, human IL-17A; test: blocking ELISA, IL-17RA coated; control IgG pre-mixed with human IL-17A 0.1 ug/ml; bound IL-17A detected (unblocked signal)
# human IL-17A [3] = biological target: T1, human IL-17A; test: blocking ELISA, IL-17RC coated; control IgG pre-mixed with human IL-17A 0.1 ug/ml; bound IL-17A detected (unblocked signal)
# human IL-17A [4] = biological target: T1, human IL-17A; test: blocking ELISA, IL-17RA coated; control IgG pre-mixed with human IL-17A 0.1 ug/ml; bound IL-17A detected
# human IL-17A [5] = biological target: T1, human IL-17A; test: ELISA, human IL-17A coated at 1 ug/mL, anti-human IgG-HRP detection
# Procedure: ELISA plates were coated with 1 μg/mL IL-17 antigen (human IL17A) (R&D Systems) and incubated at 4° C. in the dark overnight. Then it was washed once with 10 mM, pH 7.4 PBS/Tween (0.05%), blocked with PBST containing 2% BSA for 1 hour and incubated at room temperature for 1 h. The antibodies PP10759-PP10768 were diluted in 5-fold increments for a total of eleven data points and were added to the ELISA wells and incubated at room temperature for 1 hour. The plate was washed with PBS for three times, and then incubated with HRP conjugated goat anti-human IgG antibody for 1 hour. The plate was washed three times with PBS. TMB, the HRP substrate, was added to each well for color development for 5 minutes at room temperature. Equal amount of 0.1N HCl stop solution was added to each well to terminate the reaction. Raw OD₄₅₀ data was collected by POLARstar Omega (BMG Labtech). Besides, hFc isotope was regarded as control. It can be seen that the antibodies (i.e. PP10759-PP10768) bind to human IL-17A with high affinity.
# human IL-17A [6] = biological target: T1, human IL-17A; test: BLI (Octet Red96), antibody captured on AHC biosensor, human IL-17A in solution, 1:1 model, 25 C
# Procedure: Using the Octet method (Fortebio Octet®), the chimeric parental antibody and the […] (i.e. PP10759-PP10768) were evaluated with Octet Red96 at 25° C. These antibodies were captured on anti-Human Fc (AHC) biosensors at a concentration of 10 μg/mL. Loaded biosensors were then dipped into a dilution of antigen (human IL-17A (R&D Systems), 500 nM start, 1:3 down, 7 points). Kinetic constants were calculated using a monovalent (1:1) model. In FIG. 2A, Figure I, II, III and IV show the results of PP10759, PP10760, PP10761 and PP10762, respectively. In FIG. 2B, Figure I, II, III and IV show the results of PP10763, PP10764, PP10765 and PP10766, respectively. In FIG. 2B, Figure I and II show the results of PP10767 and PP10768, respectively. It can be seen that the antibodies (i.e. PP10759-PP10768) bind to IL-17A with high affinity. […] Secukinuma is a human IgG1κ monoclonal antibody that binds to IL-17A made by Novartis.
# human IL-17A [7] = biological target: T1, human IL-17A; test: blocking ELISA, IL-17RA coated; antibody 1 ug/ml pre-mixed with human IL-17A 0.1 ug/ml; bound IL-17A detected
# Procedure: (§1) Recombinant human IL-17RA or recombinant human IL-17RC (1 μg/ml) were coated on the plate, overnight at 4° C. in the dark and then blocked with 2% BSA for 1 hour at room temperature to reduce non-specific binding. The antibodies PP10759-PP10768 (1 μg/ml) pre-mixed with human IL-17A (0.1 μg/ml final concentration) were added to the ELISA wells for 1 hour at room temperature. The plate was washed with PBS for three times, and then incubated with anti-IL17A polyclonal Ab-biotin (R&D Systems) for 1 hour followed by SAV-HRP. The plate was washed for three times with PBS. TMB, the HRP substrate, was added to each well for color development for 5 minutes at room temperature. Equal amount of 0.1N HCl stop solution was added to each well to terminate the reaction. Raw OD₄₅₀ data was collected by POLARstar Omega from BMG Labtech.
# (§2) It can be seen that the antibodies PP10759-PP10768 can effectively block the interaction between IL-17A and IL-17RA as well as IL-17A and IL-17RC.
# mouse IL-17A = biological target: T2, mouse IL-17A; test: ELISA, mouse IL-17A coated
# human IL-17A [8] = biological target: T1, human IL-17A; test: blocking ELISA, IL-17RC coated; antibody 1 ug/ml pre-mixed with human IL-17A 0.1 ug/ml; bound IL-17A detected
# Procedure: as §1, §2
Molecule,Blocking % (human IL-17A [1]),OD450 (human IL-17A [2]),OD450 (human IL-17A [3]),Blocking % (human IL-17A [4]),EC50 (human IL-17A [5]),Kd (human IL-17A [6]),koff (human IL-17A [6]),kon (human IL-17A [6]),Blocking % (human IL-17A [7]),OD450 (human IL-17A [7]),binding result (mouse IL-17A),Blocking % (human IL-17A [8]),OD450 (human IL-17A [8])
Normal human IgG (antibody),0%,1.39 OD450,0.487 OD450,0%,–,–,–,–,–,–,–,–,–
B1,–,–,–,–,8.72 ng/mL,< 0.001 nM,< 1e-07 s⁻¹,400000 M⁻¹ s⁻¹,99.7%,0.0851 OD450,no binding,99.8%,0.0688 OD450
B2,–,–,–,–,7.67 ng/mL,< 0.001 nM,< 1e-07 s⁻¹,370000 M⁻¹ s⁻¹,99.5%,0.0869 OD450,no binding,99.9%,0.0685 OD450
B3,–,–,–,–,7.28 ng/mL,0.36 nM,0.00016 s⁻¹,460000 M⁻¹ s⁻¹,90.9%,0.104 OD450,no binding,98.9%,0.0721 OD450
B4,–,–,–,–,7.71 ng/mL,< 0.001 nM,< 1e-07 s⁻¹,360000 M⁻¹ s⁻¹,98.1%,0.105 OD450,no binding,99.9%,0.0684 OD450
B5,–,–,–,–,6.61 ng/mL,< 0.001 nM,< 1e-07 s⁻¹,450000 M⁻¹ s⁻¹,96.5%,0.126 OD450,no binding,98.9%,0.0725 OD450
B6,–,–,–,–,7.61 ng/mL,0.13 nM,6.6e-05 s⁻¹,500000 M⁻¹ s⁻¹,89.9%,0.213 OD450,no binding,95.2%,0.088 OD450
B7,–,–,–,–,8.26 ng/mL,< 0.001 nM,< 1e-07 s⁻¹,440000 M⁻¹ s⁻¹,99.6%,0.0846 OD450,no binding,99.5%,0.0701 OD450
B8,–,–,–,–,7.35 ng/mL,< 0.001 nM,< 1e-07 s⁻¹,350000 M⁻¹ s⁻¹,94.9%,0.147 OD450,no binding,100%,0.0682 OD450
B9,–,–,–,–,9.44 ng/mL,0.31 nM,0.00015 s⁻¹,490000 M⁻¹ s⁻¹,97.8%,0.109 OD450,no binding,98%,0.0762 OD450
B10,–,–,–,–,5.83 ng/mL,1.1 nM,0.00053 s⁻¹,480000 M⁻¹ s⁻¹,99.5%,0.0872 OD450,no binding,95.2%,0.0888 OD450
